Experimental findings from the Human Domainome abundance scans (Beltran et al. 2025) are described below.

± gives the uncertainty stated by the source.

B1: POU domain, class 4, transcription factor 1, residues 266 to 347; numbered along this chain, Q01851 (parent)
chain: RELEAFAERFKQRRIKLGVTQADVGSALANLKIPGVGSLSQSTICRFESLTLSHNNMIALKPILQAWLEEAEGAQREKMNKP

This data set covers variants of B1. The data set is described as follows: abundance fitness (aPCA) (normalised: wild type 0, dead -1); higher = more abundant; growth selection in yeast, the domain comes from the species named. As to conditions: Homo sapiens.
For RELEAFAERFKQRRIKLGVTQADVGSALANLKIPGVGFLSQSTICRFESLTLSHNNMIALKPILQAWLEEAEGAQREKMNKP [S38F], the abundance fitness came out at 0.147 ± 0.18.

Regarding RELEAFAERFKQRRIKLGVTQADVGSALANLKIPGVGGLSQSTICRFESLTLSHNNMIALKPILQAWLEEAEGAQREKMNKP [S38G], the abundance fitness is -0.203 ± 0.13.

For the variant RELEAFAERFKQRRIKLGVTQADVGSALANLKIPGVGVLSQSTICRFESLTLSHNNMIALKPILQAWLEEAEGAQREKMNKP [S38V], the abundance fitness was 0.05 ± 0.2.

Consider RELEAFAERFKQRRIKLGVTQADVGSALANLKIPGVGELSQSTICRFESLTLSHNNMIALKPILQAWLEEAEGAQREKMNKP [S38E], for which the abundance fitness worked out at 0.016 ± 0.083.

RELEAFAERFKQRRIKLGVTQADVGSALANLKIPGVGCLSQSTICRFESLTLSHNNMIALKPILQAWLEEAEGAQREKMNKP [S38C]: the abundance fitness was -0.222 ± 0.16.

For the variant RELEAFAERFKQRRIKLGVTQADVGSALANLKIPGVGPLSQSTICRFESLTLSHNNMIALKPILQAWLEEAEGAQREKMNKP [S38P], the abundance fitness was -0.112 ± 0.14.

On to RELEAFAERFKQRRIKLGVTQADVGSALANLKIPGVGHLSQSTICRFESLTLSHNNMIALKPILQAWLEEAEGAQREKMNKP [S38H], for which the abundance fitness is 0.047 ± 0.38.

Turning to RELEAFAERFKQRRIKLGVTQADVGSALANLKIPGVGRLSQSTICRFESLTLSHNNMIALKPILQAWLEEAEGAQREKMNKP [S38R], the abundance fitness was 0.048 ± 0.096.

For RELEAFAERFKQRRIKLGVTQADVGSALANLKIPGVGWLSQSTICRFESLTLSHNNMIALKPILQAWLEEAEGAQREKMNKP [S38W], the abundance fitness is -0.095 ± 0.14.

Regarding RELEAFAERFKQRRIKLGVTQADVGSALANLKIPGVGALSQSTICRFESLTLSHNNMIALKPILQAWLEEAEGAQREKMNKP [S38A], the abundance fitness was -0.18 ± 0.27.

For RELEAFAERFKQRRIKLGVTQADVGSALANLKIPGVGLLSQSTICRFESLTLSHNNMIALKPILQAWLEEAEGAQREKMNKP [S38L], the abundance fitness is -0.11 ± 0.11.

As for RELEAFAERFKQRRIKLGVTQADVGSALANLKIPGVGSHSQSTICRFESLTLSHNNMIALKPILQAWLEEAEGAQREKMNKP [L39H], the abundance fitness is -0.113 ± 0.26.

Turning to RELEAFAERFKQRRIKLGVTQADVGSALANLKIPGVGSKSQSTICRFESLTLSHNNMIALKPILQAWLEEAEGAQREKMNKP [L39K], the abundance fitness was -0.409 ± 0.08.

For RELEAFAERFKQRRIKLGVTQADVGSALANLKIPGVGSCSQSTICRFESLTLSHNNMIALKPILQAWLEEAEGAQREKMNKP [L39C], the abundance fitness was -0.096 ± 0.071.

With RELEAFAERFKQRRIKLGVTQADVGSALANLKIPGVGSDSQSTICRFESLTLSHNNMIALKPILQAWLEEAEGAQREKMNKP [L39D], the abundance fitness is -0.231 ± 0.09.

For the variant RELEAFAERFKQRRIKLGVTQADVGSALANLKIPGVGSFSQSTICRFESLTLSHNNMIALKPILQAWLEEAEGAQREKMNKP [L39F], the abundance fitness is -0.211 ± 0.16.

Take RELEAFAERFKQRRIKLGVTQADVGSALANLKIPGVGSISQSTICRFESLTLSHNNMIALKPILQAWLEEAEGAQREKMNKP [L39I]: the abundance fitness worked out at 0.042 ± 0.13.

Regarding RELEAFAERFKQRRIKLGVTQADVGSALANLKIPGVFSLSQSTICRFESLTLSHNNMIALKPILQAWLEEAEGAQREKMNKP [G37F], the abundance fitness was -0.149 ± 0.045.

As for RELEAFAERFKQRRIKLGVTQADVGSALANLKIPGVISLSQSTICRFESLTLSHNNMIALKPILQAWLEEAEGAQREKMNKP [G37I], the abundance fitness is -0.116 ± 0.063.

RELEAFAERFKQRRIKLGVTQADVGSALANLKIPGVVSLSQSTICRFESLTLSHNNMIALKPILQAWLEEAEGAQREKMNKP [G37V]: the abundance fitness was -0.093 ± 0.028.

Regarding RELEAFAERFKQRRIKLGVTQADVGSALANLKIPGVKSLSQSTICRFESLTLSHNNMIALKPILQAWLEEAEGAQREKMNKP [G37K], the abundance fitness was -0.074 ± 0.041.

RELEAFAERFKQRRIKLGVTQADVGSALANLKIPGVHSLSQSTICRFESLTLSHNNMIALKPILQAWLEEAEGAQREKMNKP [G37H]: the abundance fitness is -0.05 ± 0.066.

Consider RELEAFAERFKQRRIKLGVTQADVGSALANLKIPGVDSLSQSTICRFESLTLSHNNMIALKPILQAWLEEAEGAQREKMNKP [G37D], for which the abundance fitness was -0.092 ± 0.052.

Consider RELEAFAERFKQRRIKLGVTQADVGSALANLKIPGVESLSQSTICRFESLTLSHNNMIALKPILQAWLEEAEGAQREKMNKP [G37E], for which the abundance fitness turned out to be 0.015 ± 0.032.

Consider RELEAFAERFKQRRIKLGVTQADVGSALANLKIPGVYSLSQSTICRFESLTLSHNNMIALKPILQAWLEEAEGAQREKMNKP [G37Y], for which the abundance fitness is -0.054 ± 0.053.

On to RELEAFAERFKQRRIKLGVTQADVGSALANLKIPGVLSLSQSTICRFESLTLSHNNMIALKPILQAWLEEAEGAQREKMNKP [G37L], for which the abundance fitness is -0.121 ± 0.03.

Regarding RELEAFAERFKQRRIKLGVTQADVGSALANLKIPGVPSLSQSTICRFESLTLSHNNMIALKPILQAWLEEAEGAQREKMNKP [G37P], the abundance fitness is -0.016 ± 0.04.

On to RELEAFAERFKQRRIKLGVTQADVGSALANLKIPGVTSLSQSTICRFESLTLSHNNMIALKPILQAWLEEAEGAQREKMNKP [G37T], for which the abundance fitness was -0.076 ± 0.039.

Consider RELEAFAERFKQRRIKLGVTQADVGSALANLKIPGVQSLSQSTICRFESLTLSHNNMIALKPILQAWLEEAEGAQREKMNKP [G37Q], for which the abundance fitness was -0.121 ± 0.042.

Regarding RELEAFAERFKQRRIKLGVTQADVGSALANLKIPGVWSLSQSTICRFESLTLSHNNMIALKPILQAWLEEAEGAQREKMNKP [G37W], the abundance fitness was -0.328 ± 0.036.

For RELEAFAERFKQRRIKLGVTQADVGSALANLKIPGVSSLSQSTICRFESLTLSHNNMIALKPILQAWLEEAEGAQREKMNKP [G37S], the abundance fitness was -0.047 ± 0.032.

Take RELEAFAERFKQRRIKLGVTQADVGSALANLKIPGVNSLSQSTICRFESLTLSHNNMIALKPILQAWLEEAEGAQREKMNKP [G37N]: the abundance fitness turned out to be 0.035 ± 0.079.

In the case of RELEAFAERFKQRRIKLGVTQADVGSALANLKIPGVRSLSQSTICRFESLTLSHNNMIALKPILQAWLEEAEGAQREKMNKP [G37R], the abundance fitness was -0.115 ± 0.025.

For RELEAFAERFKQRRIKLGVTQADVGSALANLKIPGVMSLSQSTICRFESLTLSHNNMIALKPILQAWLEEAEGAQREKMNKP [G37M], the abundance fitness was -0.134 ± 0.037.
